{"source": "patent US20200055939A1", "about": "(Genentech, published 2020)", "assay_in_all_cases": "SPR, Fab over captured MICA*008.mIgG2a Ala variant; KD relative to wild type", "key": {"T250A": {"target": "T1, T250A", "T1 construct": "% monomer 91.61; also called MICA*008.mIgG2a T250A", "T1 chain": "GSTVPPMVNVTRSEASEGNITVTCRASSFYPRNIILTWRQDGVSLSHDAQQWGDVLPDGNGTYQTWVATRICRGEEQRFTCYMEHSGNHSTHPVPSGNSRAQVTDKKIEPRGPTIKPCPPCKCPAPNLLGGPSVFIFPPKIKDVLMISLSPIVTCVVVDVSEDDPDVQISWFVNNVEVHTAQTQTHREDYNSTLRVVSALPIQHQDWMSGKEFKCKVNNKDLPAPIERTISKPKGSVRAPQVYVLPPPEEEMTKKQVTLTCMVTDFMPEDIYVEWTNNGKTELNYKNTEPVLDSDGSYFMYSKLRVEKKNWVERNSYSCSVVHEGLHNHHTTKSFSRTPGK"}, "E277A": {"target": "T2, E277A", "T2 construct": "% monomer 81.58; also called MICA*008.mIgG2a E277A", "T2 chain": "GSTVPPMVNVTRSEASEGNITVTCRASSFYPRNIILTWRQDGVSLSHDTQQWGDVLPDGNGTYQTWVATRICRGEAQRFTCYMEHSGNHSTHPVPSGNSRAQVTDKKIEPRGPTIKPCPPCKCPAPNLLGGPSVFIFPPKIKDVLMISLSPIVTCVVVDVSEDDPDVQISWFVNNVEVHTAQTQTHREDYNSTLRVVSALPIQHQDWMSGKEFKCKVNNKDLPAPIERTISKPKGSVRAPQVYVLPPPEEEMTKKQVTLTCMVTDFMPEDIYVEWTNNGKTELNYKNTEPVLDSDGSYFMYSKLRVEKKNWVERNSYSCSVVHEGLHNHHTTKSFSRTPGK"}, "R274A": {"target": "T3, R274A", "T3 construct": "% monomer 94; also called MICA*008.mIgG2a R274A", "T3 chain": "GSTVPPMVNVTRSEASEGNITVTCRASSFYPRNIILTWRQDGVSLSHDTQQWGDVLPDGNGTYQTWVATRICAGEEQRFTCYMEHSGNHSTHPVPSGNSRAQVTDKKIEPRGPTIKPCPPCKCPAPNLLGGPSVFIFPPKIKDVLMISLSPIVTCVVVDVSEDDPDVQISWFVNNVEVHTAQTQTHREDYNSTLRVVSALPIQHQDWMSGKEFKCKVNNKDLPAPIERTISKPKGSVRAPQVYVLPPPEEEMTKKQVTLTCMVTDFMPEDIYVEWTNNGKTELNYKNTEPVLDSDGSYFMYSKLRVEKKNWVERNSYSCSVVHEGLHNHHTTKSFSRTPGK"}, "Q241A": {"target": "T4, Q241A (Fc fusion, a disulfide-linked homodimer; one chain given.)", "T4 construct": "% monomer 97.6; also called MICA*008.mIgG2a Q241A", "T4 chain": "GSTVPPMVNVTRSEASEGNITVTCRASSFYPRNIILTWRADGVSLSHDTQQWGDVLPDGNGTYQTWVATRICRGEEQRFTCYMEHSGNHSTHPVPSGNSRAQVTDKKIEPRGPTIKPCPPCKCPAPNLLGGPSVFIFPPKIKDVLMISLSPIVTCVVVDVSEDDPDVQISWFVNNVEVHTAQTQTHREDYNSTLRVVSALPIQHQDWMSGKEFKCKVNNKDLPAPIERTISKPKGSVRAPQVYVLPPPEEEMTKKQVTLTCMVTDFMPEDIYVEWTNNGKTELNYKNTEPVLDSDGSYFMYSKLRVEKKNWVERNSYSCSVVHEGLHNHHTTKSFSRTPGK"}, "S245A": {"target": "T5, S245A", "T5 construct": "% monomer 93.96; also called MICA*008.mIgG2a S245A", "T5 chain": "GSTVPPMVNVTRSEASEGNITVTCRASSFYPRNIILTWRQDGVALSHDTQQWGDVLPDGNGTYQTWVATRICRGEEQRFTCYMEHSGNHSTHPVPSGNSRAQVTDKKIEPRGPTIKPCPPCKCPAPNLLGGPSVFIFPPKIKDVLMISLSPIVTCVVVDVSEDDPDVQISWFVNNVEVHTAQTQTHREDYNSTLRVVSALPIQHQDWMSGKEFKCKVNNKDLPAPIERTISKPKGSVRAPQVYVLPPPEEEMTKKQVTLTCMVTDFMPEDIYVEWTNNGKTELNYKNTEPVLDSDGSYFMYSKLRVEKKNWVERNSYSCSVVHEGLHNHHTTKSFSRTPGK"}, "H248A": {"target": "T6, H248A", "T6 construct": "% monomer 92.05; also called MICA*008.mIgG2a H248A", "T6 chain": "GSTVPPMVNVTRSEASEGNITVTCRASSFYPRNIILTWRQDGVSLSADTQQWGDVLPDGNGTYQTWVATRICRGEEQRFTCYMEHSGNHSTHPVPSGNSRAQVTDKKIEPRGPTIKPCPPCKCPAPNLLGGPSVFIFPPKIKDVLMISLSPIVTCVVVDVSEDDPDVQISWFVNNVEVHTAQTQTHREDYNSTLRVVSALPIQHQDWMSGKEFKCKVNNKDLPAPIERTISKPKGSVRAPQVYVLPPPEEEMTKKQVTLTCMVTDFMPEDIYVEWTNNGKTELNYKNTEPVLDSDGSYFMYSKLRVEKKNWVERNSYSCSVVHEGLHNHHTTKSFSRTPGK"}, "D249A": {"target": "T7, D249A", "T7 construct": "% monomer 86.64; also called MICA*008.mIgG2a D249A", "T7 chain": "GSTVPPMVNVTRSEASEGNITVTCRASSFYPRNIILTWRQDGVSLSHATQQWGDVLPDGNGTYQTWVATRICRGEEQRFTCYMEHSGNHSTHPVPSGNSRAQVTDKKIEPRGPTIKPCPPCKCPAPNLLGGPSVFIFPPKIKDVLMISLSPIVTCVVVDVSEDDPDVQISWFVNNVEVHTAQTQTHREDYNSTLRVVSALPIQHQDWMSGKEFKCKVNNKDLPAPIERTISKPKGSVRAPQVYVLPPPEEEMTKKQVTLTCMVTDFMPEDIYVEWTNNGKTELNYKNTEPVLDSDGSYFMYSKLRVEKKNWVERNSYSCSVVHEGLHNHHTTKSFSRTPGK"}}}
{"binder": "1D5 Fab (Fab, V domains shown, Expressed in E. coli as chimera of murine variable and human constant domains; not shown: human IgG1 CH1 constant domain; human kappa CL constant domain) VH: EIQLQQSGPELVKPGASVKVSCKASGYAFTSQNIYWVKQSHGKSLEWIGYIEPYNVVPMYNPKFKGKATLTVDKSSSSAYIHLNSLTSEDSAIYYCARSGSSNFDYWGQGTTLTVSS VL: EIILTQSPTTMAASPGEKITITCSASSSISSHYLHWYQQKSGFSPKLLIYRTSNLASGVPARFSGSGSGTSYSLTIGTMEAEDVATYYCQQGSSLPLTFGAGTKVEIK", "values": [{"measurement": "fold-decrease in affinity", "setting": "T250A", "value": 8.8}, {"measurement": "fold-decrease in affinity", "setting": "E277A", "value": 1.9}]}
{"binder": "2E5.2.3 Fab (Fab, V domains shown) VH: QGQMQQSGAELVKPGASVKLSCKTSGFTFSDNYISWLKQKPGQSLEWIAWIYAGTGGTSYNQKFTAKAQLTVDTSSSTAYMQFSSLTTEDSAIYYCARHDYYGTSGAWFAYWGQGTLVTVSA VL: DVLMTQTPLSLPVSLGDQASLSCRSSQNIVHINGNTYLEWYLQKPGQSPKLLIYKVSNRFSGVPDRFSGSGSGTDFTLKISRVEAEDLGVYYCFQGSHVPWTFGGGTKVEIK", "values": [{"measurement": "fold-decrease in affinity", "setting": "T250A", "value": 1.2}, {"measurement": "fold-decrease in affinity", "setting": "R274A", "value": 1.1}, {"measurement": "fold-decrease in affinity", "setting": "E277A", "value": 1.1}, {"measurement": "fold-decrease in affinity", "setting": "Q241A", "value": 1.1}, {"measurement": "fold-decrease in affinity", "setting": "S245A", "value": 1}, {"measurement": "fold-decrease in affinity", "setting": "H248A", "value": 1}, {"measurement": "fold-decrease in affinity", "setting": "D249A", "value": 1}]}
{"binder": "6F8.7 Fab (Fab, V domains shown) VH: DVQLQGSGPGLVKPSQSLSLTCSVTGYSITNDYYWNWIRQFPGNKLEWMGFISFGGSNNYNPSLKNRISITRDTSKNQFFLKLSSVTTEDTATYYCARYDGRGAWFAYWAQGTLVTVSA VL: DIQMTQSPASLSASVGETVTITCRASGNIHNYLAWYQQKQGKSPQLLVYDAITLADGVPSRFSGSGSGTQYSLKINSLQPEDFGNYYCQHFWSFPLTFGAGTKVEIK", "values": [{"measurement": "fold-decrease in affinity", "setting": "T250A", "value": 0.5}, {"measurement": "fold-decrease in affinity", "setting": "R274A", "value": 1}, {"measurement": "fold-decrease in affinity", "setting": "E277A", "value": 2.7}, {"measurement": "fold-decrease in affinity", "setting": "Q241A", "value": 1.1}, {"measurement": "fold-decrease in affinity", "setting": "S245A", "value": 1.2}, {"measurement": "fold-decrease in affinity", "setting": "H248A", "value": 0.6}, {"measurement": "fold-decrease in affinity", "setting": "D249A", "value": 0.8}]}
{"binder": "7D4.6 Fab (Fab, V domains shown) VH: DVQLQESGPGLVKPSQSLSLTCTVTGYSITSDYAWNWIRQFPRNKLEWMGYINYSGTTNYNPSLKSRISITRDTSKNQFFLQLISVTTEDTATYYCSYYRYDGAWFPYWGQGTLVTVSA VL: DIQMTQSPASLSASVGETVTITCRASGNIHNYLAWYQQKQGKSPQLLVYNAIMLADGVPSRFSASGSGTQYSLKINSLQPEDFGSYYCQHFWSFPLTFGAGTKVEIK", "values": [{"measurement": "fold-decrease in affinity", "setting": "T250A", "value": 0.6}, {"measurement": "fold-decrease in affinity", "setting": "R274A", "value": 0.9}, {"measurement": "fold-decrease in affinity", "setting": "E277A", "value": 1.3}, {"measurement": "fold-decrease in affinity", "setting": "Q241A", "value": 0.4}, {"measurement": "fold-decrease in affinity", "setting": "S245A", "value": 1.6}, {"measurement": "fold-decrease in affinity", "setting": "H248A", "value": 0.6}, {"measurement": "fold-decrease in affinity", "setting": "D249A", "value": 0.7}]}
